Experimental data from publication doi:10.1101/2022.08.30.505852.

Target: βCAT_(666-729), β-catenin residues 666-729 (human) (UniProt P35222)
Assay: ITC

Sequence of βCAT_(666-729), β-catenin residues 666-729 (human) (P35222 666-729): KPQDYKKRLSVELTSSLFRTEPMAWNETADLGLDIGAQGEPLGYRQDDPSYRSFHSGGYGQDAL

“TAZ1 domain of CBP (residues 346-440) (from UniProt Q92793 346-440) (domain or fragment)” showed a Kd of 67 µM.
